From patent publication US20130224224A1 (Boehringer Ingelheim, published 2013)
Residue numbers refer to the chain shown, from its start.

T1: human CX3CR1 (human, UniProt P49238 1-355)
T1 sequence: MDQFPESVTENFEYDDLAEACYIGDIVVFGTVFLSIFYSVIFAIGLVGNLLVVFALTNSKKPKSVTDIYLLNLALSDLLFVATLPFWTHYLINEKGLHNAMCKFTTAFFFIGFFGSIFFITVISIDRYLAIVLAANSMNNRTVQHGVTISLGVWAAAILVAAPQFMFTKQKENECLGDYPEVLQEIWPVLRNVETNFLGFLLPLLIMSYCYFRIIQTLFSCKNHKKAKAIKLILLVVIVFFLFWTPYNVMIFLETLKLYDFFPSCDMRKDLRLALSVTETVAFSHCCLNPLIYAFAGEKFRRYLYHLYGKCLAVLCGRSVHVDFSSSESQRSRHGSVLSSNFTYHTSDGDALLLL

T2: cynomolgus CX3CR1 (cynomolgus, UniProt P49238 1-355 (human entry))
T2 construct: transiently expressed on HEK293T cells; also called cyCX3CR1; cyno CX3CR1
T2 chain: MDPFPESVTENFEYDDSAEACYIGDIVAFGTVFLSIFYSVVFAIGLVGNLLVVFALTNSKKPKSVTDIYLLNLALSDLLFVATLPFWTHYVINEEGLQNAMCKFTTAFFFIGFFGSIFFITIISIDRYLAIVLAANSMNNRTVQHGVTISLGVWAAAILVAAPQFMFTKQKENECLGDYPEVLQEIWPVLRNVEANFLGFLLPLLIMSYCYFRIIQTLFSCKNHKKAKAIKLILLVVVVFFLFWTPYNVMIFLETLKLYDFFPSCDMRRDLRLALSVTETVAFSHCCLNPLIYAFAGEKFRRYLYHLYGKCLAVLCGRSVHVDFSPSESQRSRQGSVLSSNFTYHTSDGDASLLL

B1: CX3CR1BIIPMP54B3 (VHH)
VHH: EVQLVESGGGSVQAGESLRLSCAASGSIFSSNAMAWYRQAPGKQRDLVAAINSVGITKYADSVKGRFTISRDNAKNTVYLQMNSLKPEDTAVYYCTSDPRRGWDTRYWGQGTQVTVSS
notes: also called 54B03; not shown: C-terminal c-myc and His6 tags
B2: CX3CR1BIIPMP54D8 (VHH)
VHH: B1 VHH with E16G, A50G, Q113L
notes: also called 54D08; CX3CR1BII54D08; not shown: C-terminal c-myc and His6 tags
B3: CX3CR1BIIPMP54G3 (VHH)
VHH: B1 VHH with A50L, Q113L
notes: also called 54G03; not shown: C-terminal c-myc and His6 tags
B4: CX3CR1BIIPMP66G01 (VHH)
VHH: B1 VHH with V2M, A50L, P99G
notes: also called CX3CR1BII66G01; not shown: C-terminal c-myc and His6 tags
B5: CX3CR1BII00306 (VHH)
VHH: DVQLVESGGGLVQPGGSLRLSCAASGSIFSSTAMAWYRQAPGKRRDLVAAISSVGVTKYADSVKGRFTISRDNSKNTVYLQMNSLRPEDTAVYYCTSDPRRGWDTRYWGQGTLVTVSS
notes: also called CX3CR1BII306
B6: CX3CR1BII00307 (VHH)
VHH: B5 VHH with S53T
notes: also called CX3CR1BII307
B7: CX3CR1BII00308 (VHH)
VHH: B5 VHH with T32N, S52N
notes: also called CX3CR1BII308
B8: CX3CR1BIIPMP61B2 (VHH)
VHH: B1 VHH with G8R, E16A, A50V, S53T, P99A
notes: also called 61B02; not shown: C-terminal c-myc and His6 tags
B9: CX3CR1BIIPMP54A4 (VHH)
VHH: B1 VHH with G9R, A50G
notes: also called 54A04; not shown: C-terminal c-myc and His6 tags
B10: CX3CR1BIIPMP61E2 (VHH)
VHH: B1 VHH with A50G, T90M
notes: also called 61E02; not shown: C-terminal c-myc and His6 tags
B11: CX3CR1BIIPMP61G4 (VHH)
VHH: B1 VHH with E1K, E16G, N83M
notes: also called 61G04; not shown: C-terminal c-myc and His6 tags
B12: CX3CR1BIIPMP54H1 (VHH)
VHH: B1 VHH with S27T, A50G, G55D, I69V, D104N
notes: also called 54H01; not shown: C-terminal c-myc and His6 tags
B13: CX3CR1BIIPMP61G3 (VHH)
VHH: B1 VHH with E1K, V12M, N83M
notes: also called 61G03; not shown: C-terminal c-myc and His6 tags
B14: CX3CR1BIIPMP61F11 (VHH)
VHH: B1 VHH with E1K, A40P, S70F
notes: not shown: C-terminal c-myc and His6 tags

Molecular target: T1, human CX3CR1
Experiment: cell-based or functional assay

Binder | % block, fractalkine induced chemotaxis | IC50, fractalkine induced chemotaxis
B1 | 73% | 100 nM
B2 | 33% | –
B3 | 40% | –
B4 | 54% | 400 nM

Molecular target: T1, human CX3CR1
Experiment: cell-based or functional assay
Remark: another data set of the same source

Binder | % block, ligand induced chemotaxis | IC50, ligand induced chemotaxis
B5 | 95% | 63 nM
B6 | 100% | 63 nM
B7 | 89% | 44 nM

Molecular target: T1, human CX3CR1
Experiment: fractalkine competition FACS

Binder | % block | IC50
B5 | 97% | 1.7 nM
B6 | 97% | 1.9 nM
B7 | 97% | 1.6 nM

Molecular target: T1, human CX3CR1
Experiment: A647-fractalkine competition FACS, CHO-huCX3CR1
Text: (§1) Periplasmic extracts were screened in a human CX3CR1/human Fractalkine FACS competition assay to assess the blocking capacity of the expressed VHHs. Human CX3CR1 was presented on CHO cells overexpressing CX3CR1. Both a setup using cells harvested from an actively growing culture and a setup using frozen cells was used. As a detection reagent labeled fractalkine was used (R&D Systems, Minneapolis, Minn., USA) labeled with alexa647 (A647-Fractalkine) at a degree of labeling of 1. To setup the assay, first a titration series of the labeled fractalkine was performed on the CHO-huCX3CR1 cells in order to determine the EC50 value for binding. Initially screening was performed at a higher concentration of fractalkine (3 nM) to increase the assay robustness. To increase the sensitivity of the screening to a maximum, the EC30 concentration (1 nM) was chosen for subsequent screening. In brief 50 μl of periplasmic extract was added to 6 nM labeled fractalkine (50 μ;) and 200 000 CHO-huCX3CR1 cells. After one hour incubation at 4 C, cells were washed three times before read out was performed on a FACS Array (Becton Dickinson). First a gate was set on the intact cells as determined from the scatter profile. Next, dead cells were gated out by their fluorescence profile from the PI stain (Sigma, St Louis, US). The fluorescence profile from the alexa647 label was determined for each sample and used for calculation of blocking capacity. As controls, conditions were taken along where there was no VHH present in the peri extract or a known irrelevant VHH and samples were included where excess cold fractalkine was included. For each sample the percentage block was determined using the control samples to determine the assay window.
(§2) The blocking capacity towards the ligand fractalkine of the VHHs was evaluated in a human CX3CR1 competition FACS as outlined in Example 4. Either CHO-huCX3CR1 cells, BA/F3-huCX3CR1 cells or transiently transfected HEK293T cells were used. The amount of labeled ligand used in the different competition setups was also varied. The IC₅₀ values for VHHs blocking the interaction of human fractalkine to human CX3CR1 are depicted in Table 19.

Binder | % block | IC50
B1 | 108% | 25 nM
B2 | 101% | 15 nM
B3 | 107% | 56 nM

Molecular target: T1, human CX3CR1
Experiment: A647-fractalkine competition FACS, BA/F3-huCX3CR1
Text: as §1, §2

Binder | % block | IC50
B1 | 99% | 33 nM
B2 | 99% | 38 nM
B3 | 98% | 98 nM

Molecular target: T1, human CX3CR1
Experiment: A647-fractalkine competition FACS, HEK293-huCX3CR1
Text: as §1, §2

Binder | % block | IC50
B1 | 92% | 67 nM
B2 | 95% | 84 nM
B3 | 89% | 270 nM
B8 | 94% | 10 nM
B9 | 100% | 49 nM
B10 | 98% | 82 nM
B11 | 96% | 42 nM
B4 | 99% | 14 nM
B12 | 64% | 10 nM
B13 | 96% | 60 nM
B14 | 96% | 46 nM

Molecular target: T1, human CX3CR1
Experiment: A647-fractalkine competition FACS, HEK293T human CX3CR1
Text: as §1
(§3) For later identified VHHs, a human Fractalkine competition FACS was set up using human or cynomolgus CX3CR1 expressed in HEK293T cells. Both the human and the cynomolgus receptor was transiently transfected in HEK293T cells and transfections were matched by the binding of the labeled ligand, human fractalkine. The competition was evaluated using the EC30 concentration of fractalkine and as such obtained IC50 values are a good estimate of the Ki value, a measure for affinity (Table 22). The experiment was performed as described in Example 4.

Binder | % block | IC50
B1 | 92% | 67 nM
B2 | 95% | 84 nM
B3 | 89% | 270 nM
B8 | 94% | 10 nM
B9 | 100% | 49 nM
B10 | 98% | 82 nM
B11 | 96% | 42 nM
B4 | 99% | 14 nM
B12 | 64% | 10 nM
B13 | 96% | 60 nM
B14 | 96% | 46 nM

Molecular target: T2, cynomolgus CX3CR1
Experiment: A647-fractalkine competition FACS, HEK293T cynomolgus CX3CR1
Text: as §1, §3

Binder | % block | IC50
B1 | 95% | 470 nM
B2 | 91% | 72 nM
B3 | 89% | 470 nM
B8 | 92% | 45 nM
B9 | 91% | 31 nM
B10 | 96% | 46 nM
B11 | 100% | 200 nM
B4 | 100% | 120 nM
B12 | 92% | 68 nM
B13 | 89% | 300 nM
B14 | 95% | 160 nM

Molecular target: T2, cynomolgus CX3CR1
Experiment: A647-fractalkine competition FACS, cynomolgus against human CX3CR1
Text: as §1, §3

Binder | ratio (cynomolgus/human IC50)
B1 | 7.05
B2 | 0.85
B3 | 1.74
B8 | 4.37
B9 | 0.64
B10 | 0.55
B11 | 4.8
B4 | 8.29
B12 | 6.48
B13 | 5.02
B14 | 3.58

Molecular target: T1, human CX3CR1
Experiment: periplasmic extract, A647-fractalkine competition FACS, CHO-huCX3CR1
Text: as §1

Binder | % block
B1 | 90.1%
B2 | 64.1%
B3 | 74.7%
B8 | 94.5%
B9 | 86.6%
B10 | 70.3%
B11 | 94.5%
B12 | 74.6%
B13 | 92.1%
B14 | 96.5%
